Results published in US20260234268A1, “ANTI-ASGR1 MONOCLONAL ANTIBODY AND USE THEREOF” (CHOLESGEN (SHANGHAI) CO., LTD., priority 2022, published 2026).

Key:
LXRα [1] = assay: Western blotting of LXRα in primary hepatocytes incubated with monoclonal neutralizing antibodies; format: cell-based, mouse; conditions: primary hepatocytes of wild-type C57B/L6 mice, various concentrations, 72 hours, Western blotting (FIG. 1d)
LXRα [2] = assay: Western blotting of LXRα in Huh7 cells incubated with purified neutralizing antibody; format: cell-based, human; conditions: 72 hours, Western blotting (FIG. 1c)
Description: (§1) (a) Steps for preparing ASGR1 monoclonal neutralizing antibody. Purified ASGR1 protein is used as the antigen to immunize rabbits, and after the first round of screening, four B-cell monoclonal antibodies are selected as candidates. The coding region of the variable region of the antibody is then sequenced and cloned into an antibody expression vector, which is transfected into mammalian cells. The efficiency of transfection is confirmed by Western blotting and real-time quantitative PCR. Finally, the rabbit-derived Fc fragment is replaced with a murine Fc fragment. The neutralizing antibody 4B9 is selected for large-scale production and used in subsequent experiments. (b) ASGR1 protein purified from HEK293T cells is stained with Coomassie Brilliant Blue. (c) Huh7 cells are incubated with purified neutralizing antibody for 72 hours, followed by Western blotting analysis of the protein expression of LXRα. (d) Primary hepatocytes are isolated from 8-week-old wild-type C57B/L6 mice. […] The primary hepatocytes are incubated with ASGR1 neutralizing antibody 4B9 for 72 hours, after which cells are collected, total RNA is extracted from the cells, and target genes of LXR are analyzed by real-time quantitative PCR. […]

[3] = system: mice fed a high-fat, high-cholesterol, and cholate (HF/HC/BS) diet; assay: 4B9 and Ezetimibe, alone or combined, in mice fed HF/HC/BS diet (Example 3, FIG. 4); format: in vivo, mouse
Method: (§2) All data are presented as mean±SEM.
We then devised an experiment as in FIG. 4 to verify the hypothesis. Mice were randomly divided into 8 groups according to the genotype (n=6) and fed an HF/HC/BS diet. They were intragastrically administered with EZ at 10 mg/kg per day and were intraperitoneally injected with 4B9 at 10 mg/kg every other day. The mice were sacrificed on day 7 to collect their tissues.

target genes of LXR = assay: Real-time quantitative PCR of target genes of LXR in primary hepatocytes incubated with 4B9; format: cell-based; conditions: primary mouse hepatocytes, 72 hours, real-time quantitative PCR (FIG. 1e)
Description: as §1

[4] = system: mice fed a high-fat, high-cholesterol, and cholate (HF/HC/BS) diet; assay: 4B9 and atorvastatin, alone or combined, in mice fed HF/HC/BS diet, 14 days (Example 2, FIG. 3)
Method: 8-week-old Asgr1 knockout mice and wild-type littermates are randomly divided into 8 groups as shown in the figure according to the genotype, with 6 mice per group. The mice are given free access to water and fed a high-fat, high-cholesterol, and cholate (HF/HC/BS) diet (60% fat, 1.25% cholesterol, and 0.5% cholate). […] After 14 days, the mice are fasted for 4 hours before being sacrificed. All data are presented as mean±SEM. Statistical significance is calculated using an unpaired two-tailed Student's t-test. *p<0.05, **p<0.01, ***p<0.001. (a) Western blotting analysis of liver samples; (b) total cholesterol in serum; (c) triglyceride in serum; (d) total cholesterol in liver; (e) triglyceride in liver; (f) concentration of cholesterol in bile; (g) total cholesterol in bile; (h) concentration of bile acid in bile; (i) total bile acid in bile; (j) total cholesterol in feces; (k) body weight; (l) daily food intake; (m) ratio of liver weight to body weight; (n) blood glucose; (o) alanine transaminase in serum; (p) aspartate transaminase in serum; (q-r) real-time quantitative PCR analysis of genes related to cholesterol efflux, cholesterol synthesis and absorption, lipid synthesis, and bile acid synthesis in the liver of mice, and genes in other pathways, with cyclophilin as an internal reference; (s) hematoxylin-eosin staining of liver sections; (t) oil red O staining of liver sections.
In the experiment, wild-type littermates were used as a control. All mice were housed in an SPF (specific pathogen-free) facility and kept on a 12-hour light/12-hour dark cycle. 8-week-old male or female mice were fed a high-fat, high-cholesterol, and cholate diet (Research Diets, D12109C) as required by the experimental protocols. For treatments involving antibody neutralization or the combination of antibodies with statins or Ezetimibe, the mice were intraperitoneally injected with antibodies or intragastrically administered with drugs at specified doses. All animals were fasted for 4 hours before being sacrificed.
The collected cells or tissues were lysed in RIPA lysis buffer supplemented with protease and phosphatase inhibitors. The RIPA lysis buffer contained 50 mM Tris-HCl (pH=8.0), 150 mM NaCl, 2 mM MgCl2, 1.5% NP-40, 0.1% SDS, and 0.5% sodium deoxycholate. The protease inhibitor contained 10 μM MG-132, 10 μg/mL leupeptin, 1 mM PMSF, 5 μg/mL pepstatin, 25 μg/mL ALLN, and 1 mM DTT. The protein concentration of the lysate was determined using a BCA method (Thermo Fisher Scientific). The protein samples were incubated with membrane solubilization buffer (62.5 mM Tris-HCl (pH=6.8), 15% SDS, 8 M urea, 10% glycerol, and 100 mM DTT) and 4× loading buffer (150 mM Tris-HCl (pH=6.8), 12% SDS, 30% glycerol, 6% β-mercaptoethanol, and 0.02% bromophenol blue) at 37° C. for 30 minutes. The protein samples were separated by SDS-PAGE and transferred to a PVDF membrane, which was blocked in TBST, i.e., TBS containing 0.075% Tween 20 and 5% skim milk (3% BSA for phosphorylation experiments) for 1 hour. The membrane was incubated overnight at 4° C. with a specified primary antibody, and washed three times with TBST. Finally, Pierce ECL Plus Western blotting substrate (Thermo Fisher Scientific) was used for detection.
Blood was collected from the orbital sinus to obtain serum for the measurement of total cholesterol and triglyceride.

[5] = system: mice fed a high-fat, high-cholesterol, and cholate (HF/HC/BS) diet; assay: 4B9 in mice fed HF/HC/BS diet, 14 days (Example 1, FIG. 2); format: in vivo, mouse
Description: as §2
We further investigated whether 4B9 was able to completely simulate the improvement of Asgr1 deletion on high-fat, high-cholesterol conditions.

[6] = sacrificed on day 7, 4B9 10 mg/kg i.p. every other day, EZ 10 mg/kg per day intragastric (FIGS. 4a, 4p-q)
[7] = wild-type mice, HF/HC/BS diet, 4B9 10 mg/kg/day i.p. every other day, 14 days, Western blotting (FIG. 2a)

B1: 4B9: ASGR1 monoclonal neutralizing antibody from immunized rabbits, rabbit Fc replaced with mouse Fc; VL SEQ ID NO: 28, VH SEQ ID NO: 29 (antibody, listed as Oryctolagus cuniculus, V domains shown)
VH: QSLEESGGDLVKPGATMTLTCKASGFSFSGSLWICWVRQAPGKGLEWIACIYVGSSGSTYYASWAKGRFTISTTSSTTVTLQMTSLTAADTATYFCARRYTDAYGGYPAGSFVFKLWGPGTLVTVSS
VL: QVLTQTPSPVSAAVGGTVTINCQASQSVYNNKNLGWYQQKPGQPPKLLIYYASDLASGVPSRFKGSGSGKQFTLTISDVQCDDAATYYCQGEFSCSSADCCAFGGGTEVVVK
modifications: mouse Fc
- protein stability of LXRα (LXRα [1]): significantly increase
- protein stability of LXRα (LXRα [2]): significantly increase
- body weight ([3]; 8 groups of mice, sacrificed on day 7, 4B9 10 mg/kg i.p. every other day, EZ 10 mg/kg per day intragastric (FIG. 4j)): No significant differences
- daily food intake ([3]; 8 groups of mice, sacrificed on day 7, 4B9 10 mg/kg i.p. every other day, EZ 10 mg/kg per day intragastric (FIG. 4k)): No significant differences
- ratio of liver weight to body weight ([3]; 8 groups of mice, sacrificed on day 7, 4B9 10 mg/kg i.p. every other day, EZ 10 mg/kg per day intragastric (FIG. 4l)): No significant differences
- blood glucose ([3]; 8 groups of mice, sacrificed on day 7, 4B9 10 mg/kg i.p. every other day, EZ 10 mg/kg per day intragastric (FIG. 4m)): No significant differences
- ALT ([3]; 8 groups of mice, sacrificed on day 7, 4B9 10 mg/kg i.p. every other day, EZ 10 mg/kg per day intragastric (FIG. 4n)): No significant differences
- AST ([3]; 8 groups of mice, sacrificed on day 7, 4B9 10 mg/kg i.p. every other day, EZ 10 mg/kg per day intragastric (FIG. 4o)): No significant differences
- cholesterol synthesis or absorption-related genes and their proteins in liver ([3]; sacrificed on day 7, 4B9 10 mg/kg i.p. every other day (FIGS. 4a, 4p-q)): without affecting the levels
- total cholesterol in serum ([3]; sacrificed on day 7, 4B9 10 mg/kg i.p. every other day, EZ 10 mg/kg per day intragastric (FIG. 4b)): effectively reduce
- triglyceride in serum ([3]; sacrificed on day 7, 4B9 10 mg/kg i.p. every other day, EZ 10 mg/kg per day intragastric (FIG. 4c)): effectively reduce
- triglyceride in liver ([3]; sacrificed on day 7, 4B9 10 mg/kg i.p. every other day, EZ 10 mg/kg per day intragastric (FIG. 4e)): effectively reduce
- total amount of total cholesterol in bile ([3]; sacrificed on day 7, 4B9 10 mg/kg i.p. every other day, EZ 10 mg/kg per day intragastric (FIG. 4g)): increased
- total amount of total bile acid in bile ([3]; sacrificed on day 7, 4B9 10 mg/kg i.p. every other day, EZ 10 mg/kg per day intragastric (FIG. 4i)): increased
- total cholesterol in liver ([3]; sacrificed on day 7, 4B9 10 mg/kg i.p. every other day, EZ 10 mg/kg per day intragastric (FIG. 4d)): effectively reduce
- cholesterol efflux-related genes and their proteins (LXRs, ABCG8, ABCA1, CYP7A1) in liver [3, 6]: increased levels
- lipid synthesis-related genes and their proteins (SREBP1, FASN) in liver [3, 6]: inhibited the levels
- cholesterol efflux-related genes (target genes of LXR) (target genes of LXR): significantly up-regulated
- cholesterol synthesis or absorption-related genes and their proteins in liver ([4]; 4B9 10 mg/kg/day i.p. every other day (FIGS. 3a, 3q-r)): without affecting the levels
- total cholesterol in serum ([4]; 4B9 10 mg/kg/day i.p. every other day, atorvastatin 30 mg/kg/day intragastric daily (FIG. 3b)): effectively reduce
- triglyceride in serum ([4]; 4B9 10 mg/kg/day i.p. every other day, atorvastatin 30 mg/kg/day intragastric daily (FIG. 3c)): effectively reduce
- triglyceride in liver ([4]; 4B9 10 mg/kg/day i.p. every other day, atorvastatin 30 mg/kg/day intragastric daily (FIG. 3e)): effectively reduce
- total amount of total cholesterol in bile ([4]; 4B9 10 mg/kg/day i.p. every other day, atorvastatin 30 mg/kg/day intragastric daily (FIG. 3g)): increased
- total amount of total bile acid in bile ([4]; 4B9 10 mg/kg/day i.p. every other day, atorvastatin 30 mg/kg/day intragastric daily (FIG. 3i)): increased
- total cholesterol in feces ([4]; 4B9 10 mg/kg/day i.p. every other day, atorvastatin 30 mg/kg/day intragastric daily (FIG. 3j)): significantly increased
- total cholesterol in liver ([4]; 4B9 10 mg/kg/day i.p. every other day, atorvastatin 30 mg/kg/day intragastric daily (FIG. 3d)): effectively reduce
- lipid synthesis-related genes and their proteins (SREBP1, FASN) in liver ([4]; 4B9 10 mg/kg/day i.p. every other day, atorvastatin 30 mg/kg/day intragastric daily (FIGS. 3a, 3q-r)): inhibited the levels
- all parameters in Asgr1 knockout mice with or without injection of 4B9 ([5]; Asgr1 knockout mice, HF/HC/BS diet, 4B9 10 mg/kg/day i.p. every other day, 14 days (FIG. 2a)): remained unchanged
- real-time quantitative PCR of liver genes (cholesterol efflux, cholesterol synthesis and absorption, lipid synthesis, bile acid metabolism) ([5]; HF/HC/BS diet, 4B9 10 mg/kg/day i.p. every other day, 14 days (FIG. 2b)): consistent with protein-level changes
- body weight ([5]; HF/HC/BS diet, 4B9 10 mg/kg/day i.p. every other day, 14 days (FIG. 2n)): no significant changes
- daily food intake ([5]; HF/HC/BS diet, 4B9 10 mg/kg/day i.p. every other day, 14 days (FIG. 2o)): no significant changes
- ratio of liver weight to body weight ([5]; HF/HC/BS diet, 4B9 10 mg/kg/day i.p. every other day, 14 days (FIG. 2p)): no significant changes
- blood glucose ([5]; HF/HC/BS diet, 4B9 10 mg/kg/day i.p. every other day, 14 days (FIG. 2q)): no significant changes
- ALT (alanine transaminase in serum) ([5]; HF/HC/BS diet, 4B9 10 mg/kg/day i.p. every other day, 14 days (FIG. 2r)): no significant changes
- AST (aspartate transaminase in serum) ([5]; HF/HC/BS diet, 4B9 10 mg/kg/day i.p. every other day, 14 days (FIG. 2s)): no significant changes
- total cholesterol in serum ([5]; HF/HC/BS diet, 4B9 10 mg/kg/day i.p. every other day, 14 days, vs control group (FIG. 2c)): significant decrease
- total cholesterol in liver ([5]; HF/HC/BS diet, 4B9 10 mg/kg/day i.p. every other day, 14 days, vs control group (FIG. 2e)): significant decrease
- triglyceride in liver ([5]; HF/HC/BS diet, 4B9 10 mg/kg/day i.p. every other day, 14 days, vs control group (FIG. 2f)): significant decrease
- total amount of total cholesterol in bile ([5]; HF/HC/BS diet, 4B9 10 mg/kg/day i.p. every other day, 14 days, vs control group (FIG. 2i)): significant increase
- total cholesterol in feces ([5]; HF/HC/BS diet, 4B9 10 mg/kg/day i.p. every other day, 14 days, vs control group (FIG. 2k)): significant increase
- concentration of total bile acid in bile ([5]; HF/HC/BS diet, 4B9 10 mg/kg/day i.p. every other day, 14 days, vs control group (FIG. 2l)): significant increase
- total amount of total bile acid in bile ([5]; HF/HC/BS diet, 4B9 10 mg/kg/day i.p. every other day, 14 days, vs control group (FIG. 2m)): significant increase
- concentration of total cholesterol in bile ([5]; HF/HC/BS diet, 4B9 10 mg/kg/day i.p. every other day, 14 days, vs control group (FIG. 2h)): significant increase
- triglyceride in serum ([5]; HF/HC/BS diet, 4B9 10 mg/kg/day i.p. every other day, 14 days, vs control group (FIG. 2d)): significant decrease
- volume of gallbladder ([5]; HF/HC/BS diet, 4B9 10 mg/kg/day i.p. every other day, 14 days, vs control group (FIGS. 2g, j)): significant increase
- overall lipid-lowering effect ([5]; summary of Example 1, high-fat, high-cholesterol diet): very significant lipid-lowering effect
- BARD1 in liver [5, 7]: significantly reduced
- LDLR in liver [5, 7]: remained unchanged
- cholesterol efflux-related proteins (LXR, ABCG8, ABCA1, CYP7A1) in liver [5, 7]: significantly increased
- lipid synthesis-related proteins SREBP1 and FASN in liver [5, 7]: significantly reduced
- p-ACC in liver [5, 7]: significantly up-regulated
